Reference: patent US20130225503A1, “TEX14 PEPTIDES AS NOVEL ANTITUMOR AGENTS” (Baylor Licnensing Group, priority 2009, published 2013)

T1: TX-CEP interaction (Homo sapiens, UniProt Q53EZ4)
T1 construct: expressed in transfected cells; host or cells: HEK293T
T1 sequence (Q53EZ4 157-236 limits assumed): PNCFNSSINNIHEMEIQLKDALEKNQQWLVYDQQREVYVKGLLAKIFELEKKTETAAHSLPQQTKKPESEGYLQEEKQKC

T2: full-length mouse TEX14 (mouse, UniProt Q7M6U3 1-1450)
T2 construct: whole, on cells; In the yeast two-hybrid assay it stood as a fusion with a GAL4 domain (pGBKT7 bait or pGADT7 prey vector)
T2 sequence (looked up): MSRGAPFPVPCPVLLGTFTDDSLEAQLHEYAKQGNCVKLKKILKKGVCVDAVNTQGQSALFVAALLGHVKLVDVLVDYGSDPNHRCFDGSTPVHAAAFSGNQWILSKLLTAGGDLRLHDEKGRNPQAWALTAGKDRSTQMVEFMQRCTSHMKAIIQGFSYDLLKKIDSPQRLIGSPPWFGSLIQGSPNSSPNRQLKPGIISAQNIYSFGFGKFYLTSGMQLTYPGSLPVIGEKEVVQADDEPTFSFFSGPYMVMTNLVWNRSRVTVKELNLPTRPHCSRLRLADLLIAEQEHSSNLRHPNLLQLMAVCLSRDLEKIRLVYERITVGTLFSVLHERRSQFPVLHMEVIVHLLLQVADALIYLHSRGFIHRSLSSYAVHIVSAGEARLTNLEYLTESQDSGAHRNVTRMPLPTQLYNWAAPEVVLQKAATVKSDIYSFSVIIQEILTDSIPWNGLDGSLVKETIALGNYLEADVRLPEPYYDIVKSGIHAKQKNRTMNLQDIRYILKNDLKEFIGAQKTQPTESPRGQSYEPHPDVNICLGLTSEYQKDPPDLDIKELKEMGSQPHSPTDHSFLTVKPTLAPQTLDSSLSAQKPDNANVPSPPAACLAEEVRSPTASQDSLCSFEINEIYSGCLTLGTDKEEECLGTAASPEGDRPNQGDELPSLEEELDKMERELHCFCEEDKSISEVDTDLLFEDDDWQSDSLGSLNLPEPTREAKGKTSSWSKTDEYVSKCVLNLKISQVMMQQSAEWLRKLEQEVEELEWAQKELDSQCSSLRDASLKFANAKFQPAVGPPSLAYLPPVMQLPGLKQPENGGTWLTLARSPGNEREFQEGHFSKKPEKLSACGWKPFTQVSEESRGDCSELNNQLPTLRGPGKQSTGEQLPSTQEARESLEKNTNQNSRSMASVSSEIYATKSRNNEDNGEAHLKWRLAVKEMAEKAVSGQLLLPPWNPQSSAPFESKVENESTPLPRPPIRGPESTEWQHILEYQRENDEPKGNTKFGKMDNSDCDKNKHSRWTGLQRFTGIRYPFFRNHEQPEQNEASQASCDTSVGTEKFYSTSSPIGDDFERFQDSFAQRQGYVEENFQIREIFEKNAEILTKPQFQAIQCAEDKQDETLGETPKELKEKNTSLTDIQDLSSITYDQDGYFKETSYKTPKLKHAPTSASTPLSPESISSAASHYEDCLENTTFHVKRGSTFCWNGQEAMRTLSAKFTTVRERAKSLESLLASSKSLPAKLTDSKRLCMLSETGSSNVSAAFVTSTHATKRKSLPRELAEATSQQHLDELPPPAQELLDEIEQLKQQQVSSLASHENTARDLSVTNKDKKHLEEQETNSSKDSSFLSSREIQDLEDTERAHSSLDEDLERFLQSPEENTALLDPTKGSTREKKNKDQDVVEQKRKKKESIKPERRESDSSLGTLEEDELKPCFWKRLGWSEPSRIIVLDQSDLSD

B1: full-length mouse MKLP1 (other, UniProt E9Q5G3 1-953, looked up)
chain: MKSAKAKTVRKPVIKKGSQTNLKDPVGVYCRVRPLSFPDQECCVEVINSTTLQLHTPEGYRLNRNGDYKETQYSFKRVFGTHTTQKELFDVVANPLVDDLIHGKNGLLFTYGVTGSGKTYTMTGSPGSGGLLPRCLNMIFNSIGSFQAKRYVFKSNDRNSMEIQCEVDALLERQKREALPIPKTPSSKRQADPEFADMINVQEFCKAEEVDEDSVYGVFVSYIEIYNNYIYDLLEEVQFDPIKPKLPQSKTLREDKNHNMYVAGCTEVEVKSTEEAFEVFWRGQKKRRIANTHLNRESSRSHSVFSIKLVQAPLDADGDNVLQEKEQITISQLSLVDLAGSERTNRTKAEGNRLREAGNINQSLMTLRTCMEVLRENQTYGTNKMVPYRDSKLTHLFKNYFDGEGKVRMIVCVNPKAEDYEESLQVMRFAEVTQEVEVARPVDKVICGLTPGRRYRNLPRGGPVGDEPLVPEVILQSFPPLPPCKLLDINDEETLPKLADTLEKRHHLRQLMTEDLNKKCLAFKALLKEFDNSLSNKENYVQEKLNEREKVISGQKLEIERLEKKNKTLEYKIEILEKTTTIYEEDKRNLQQELESQNQKLQRQFSDKRRLEARLQGMVTETSMKWQKECERRVAATQLEMQNKLWVKDEKLKQLKAIVTEPKPEKPERPSRERDREKIIPRSVSPSPLPLSSNNIAQISNGQQLMSQPQLHRRSNSCSSISVASCISEWEQKLSPFSTPVNVTSLARHRQQEPGQSKTCIVSDRRRGMCWTEGREMVPTFSSEIGVEEDHCRRNTPIPVRHRRSRSAGSRWVDHKPASNVQTETVMQPHVPHAITVSVANEKALAKCEKYMLTHQELASDGEIQTKVIKGDVYKTRGGGQSVQFTDIETLKQELPTGSRKRRSSTLAPAQPDGTESEWTDVETRCSVAVEMRAGSQLGPGYQHHAQPKRKKP
notes: whole, on cells; Yeast two-hybrid fusion with a GAL4 domain; also called MLKP1
B2: mouse TEX14 amino acids 756 to 815, GPPX3Y-containing fragment (T4) (peptide, UniProt Q7M6U3 756-815, looked up)
chain: EVEELEWAQKELDSQCSSLRDASLKFANAKFQPAVGPPSLAYLPPVMQLPGLKQPENGGT
notes: range 756-815; Yeast two-hybrid GAL4 fusion; also called TEX14-T4
B3: full-length mouse CEP55 (other, UniProt Q8BT07 1-462, looked up)
chain: MSSRSPKDLIKSKWGSRPSSSKSDTALEKFKGEIAAFKTSLDEITSGKGKMAEKGRSRLLEKIQVLEAEREKNVYYLLEKDKEIQRLKDHLRSRYSSSSLFEQLEEKTKECEKKQQLLESLSKETDVLKNQLSATTKRLSELESKASTLHLSQSMPANCFNSSMNSIHEKEMQLKDALEKNQQWLVYDQQREAYVKGLLAKIFELEKRTETAAASLTQQMKKIESEGYLQVEKQKYDHLLENAKKDLEVERQAVTQLRLELDEFRRKYEEARKEVEDLNQLLSSQRKADIQHLEEDKQKTERIQKLREESSIFKGKLEEERKRSEELLSQVRILYDSLLKHQEEQARVALLEQQMQACTLDFENEKLDRQNMQHQLYVILKELRKAKSQITQLESLKQLHGFTITEQPFPLQREPESRVKATSPKSPSAALNDSLVECPKCSVQYPATEHRDLLVHVEYCMK
notes: whole, on cells; Yeast two-hybrid fusion with a GAL4 domain (pGBKT7 or pGADT7)

Columns and labels:
TX-CEP interaction = molecular target: T1, TX-CEP interaction; assay: Competition assay using the mammalian two-hybrid system, TX-CEP55 interaction; type: cell-based; details: pcDNA3 overexpression in HEK293T cells; FIG. 6C, FIG. 7 right
Source text: A modified form of the CheckMate/Flexi vector mammalian two-hybrid system (Promega) was used to study the interactions of proteins in mammalian cells. A pGL4Cherry (mCherry/GAL4UAS/Hygro) vector was engineered from the pGL4.31 (luc2P/GAL4UAS/Hygro) vector by replacing the Luc2P firefly luciferase reporter sequence with the mCherry sequence. The pACT vector expresses a protein of interest, “X,” fused to a transcriptional activation domain (VP16-AD) and the pBIND vector expresses the other protein of interest, “Y,” fused to a DNA-binding domain (GAL4-BD) and Renilla luciferase by separate promoters. […]
Sequences encoding the truncated TEX14, CEP55, ALIX, or TSG101 fragments were cloned into the multiple cloning regions of the pACT and pBIND vectors. Some exemplary constructs used are summarized in FIGS. 6A and B. pACT (protein X), pBIND (protein Y), and pGL4Cherry (mCherry/GAL4UAS/Hygro) were transiently cotransfected into HEK293T cells using Fugene 6/HD transfection reagent, and the cells were examined 44 h later for red fluorescence by using an Axiovert 40 CFL microscope (Carl Zeiss). […] The cells were lysed by using Renilla luciferase assay reagent (Promega), and red fluorescence and Renilla luciferase were measured by using a Polar Star Omega microplate reader (BMG LabTech). […]

full-length mouse TEX14 = molecular target: T2, full-length mouse TEX14; assay: yeast two-hybrid, full-length proteins, oxygen biosensor and selection plates
Experimental: (A) Immunoprecipitation (IP) of FLAG-TEX14 and/or MYC-CEP55 from HEK293T cells, followed by Western blot analysis with the antibodies as shown. Immunoprecipitation of protein G (lanes G) is the control. (B) Yeast two-hybrid analyses using vectors encoding full-length mouse TEX14, MKLP1, CEP55, and positive and negative controls. The relative ratios of TEX14-TEX14, TEX14-MKLP1, and TEX14-CEP55 interactions were determined by using an oxygen-biosensor system. (C) Yeast two-hybrid interactions of mouse and human full-length TEX14 and CEP55. (a) Yeast were stably transformed with vectors and plated for yeast two-hybrid analysis as depicted. SV40 T antigen with p53 and SV40 T antigen with lamin C were used as positive and negative controls, respectively. (b) Interactions between the two-hybrid proteins are evident by colony growth and blue color on selection plates.
(§1) Protein-protein interactions were evaluated by using the Matchmaker Two-Hybrid System 3 (Clontech) as described previously (10). Mouse full-length TEX14 and MLKP1 were previously subcloned into the Matchmaker GAL4 two-hybrid pGBKT7 and pGADT7 vectors (10). The constructs of full-length mouse and human CEP55, human TEX14, truncated mouse CEP55-C1, and truncated mouse TEX14-T1, T2, T1[…]T2, T3, T4, and T4-C were made by using the Matchmaker GAL4 two-hybrid pGBKT7 bait vector and pGADT7 prey vectors. Some Y2H interactions were examined with an oxygen biosensor assay (Clontech PT3584-1) that measured the fluorescence emitted by an oxygen-sensing platform that detects GAL4.
Since both CEP55 and TEX14 interact with MKLP1 (10, 22), it was determined whether CEP55 and TEX14 are components of the intercellular bridge as direct or indirect interactors. The inventors first overexpressed full-length FLAG-TEX14 and MYC-CEP55 constructs in HEK293T cells (FIG. 2A). […] Likewise, when the inventors immunoprecipitate with anti-MYC antibody, they immunoprecipitate both MYC-CEP55 and FLAG-TEX14.

full-length mouse CEP55 = molecular target: B3; assay: yeast two-hybrid
Experimental: as §1
To determine the relevance of this GPPX3Y motif as it relates to the interaction of TEX14 with CEP55, we performed yeast two-hybrid assays with mouse TEX14 amino acids 756 to 815 that contain the GPPX3Y motif (FIG. 3A). These 60 amino acids interacted with full-length CEP55 (FIGS. 3B and C). Conversely, an 80-amino-acid fragment of CEP55 (C1) that contains the hinge region interacted with full-length TEX14, the C terminus (T3), and GPPX3Y-containing fragment (T4) but not a shorter sequence that lacked the GPPX3Y motif (T4-C) (FIG. 3A to C). Thus, similar GPPX3Y-containing regions of TEX14, ALIX, and TSG101 interact with the hinge region of CEP55.

| effect of overexpression on TX-CEP interaction (TX-CEP interaction) | binding result (full-length mouse TEX14) | Molecule | further results |
| --- | --- | --- | --- |
| fails to disrupt | – | ALIX: truncated ALIX region including the GPPX3Y motif, pcDNA3 overexpression vector (ATAPSPVGAGTAAPAPSQTPGSAPPPQAQGPPYPTYPGYPGYCQMPMPMGYNPYAYGQYN) | – |
| fails to disrupt | – | TSG: truncated TSG101 region including the GPPX3Y motif, pcDNA3 overexpression vector (MIVVFGDEPPVFSRPISASYPPYQATGPPNTSYMPGMPGGISPYPSGYPPNPSGYPGCPY) | – |
| – | binds | B1 | – |
| – | – | B2 | binding result (full-length mouse CEP55): binds |
| – | binds | B3 | – |
